Assay results reported in paper PMC8786347 (Oncoimmunology, 2022).

T1: CD27-moFc (UniProt P26842 20-191)
T1 sequence (looked up): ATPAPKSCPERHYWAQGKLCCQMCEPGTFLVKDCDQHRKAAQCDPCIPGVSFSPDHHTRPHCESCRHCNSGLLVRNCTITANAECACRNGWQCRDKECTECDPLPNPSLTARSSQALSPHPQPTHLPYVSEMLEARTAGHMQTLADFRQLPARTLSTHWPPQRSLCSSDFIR

T2: OX40-moFc (UniProt P43489 29-214)
T2 sequence (looked up): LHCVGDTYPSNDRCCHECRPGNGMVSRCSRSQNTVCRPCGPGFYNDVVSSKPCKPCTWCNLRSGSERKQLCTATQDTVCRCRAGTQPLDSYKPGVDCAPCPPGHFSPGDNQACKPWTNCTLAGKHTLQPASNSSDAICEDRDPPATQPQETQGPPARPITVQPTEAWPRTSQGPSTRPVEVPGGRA


Key:
Experiment in all cases: ELISA
[1] = target: T1, CD27-moFc
[2] = target: CD40-huFc (UniProt P25942 21-193)
Sequence of CD40-huFc (P25942 21-193): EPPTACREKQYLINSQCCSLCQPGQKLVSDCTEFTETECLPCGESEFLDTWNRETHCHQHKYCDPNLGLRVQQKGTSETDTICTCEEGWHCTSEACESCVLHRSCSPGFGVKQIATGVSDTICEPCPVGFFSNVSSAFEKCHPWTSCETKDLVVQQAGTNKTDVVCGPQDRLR

[3] = target: CD40-moFc (UniProt P25942 21-193)
Sequence of CD40-moFc (P25942 21-193): as above

[4] = target: T2, OX40-moFc

Row | EC50 [1] [nM] | EC50 [2] [nM] | EC50 [3] [nM] | EC50 [4] [nM] | Binder
1 | 0.3 | 0.1 |  |  | scCD40L-scCD27L-Fc (Fc fusion, human) chain 1: GDQNPQIAAHVISEASSKTTSVLQWAEKGYYTMSNNLVTLENGKQLTVKRQGLYYIYAQVTFCSNREASSQAPFIASLCLKSPGRFERILLRAANTHSSAKPCGQQSIHLGGVFELQPGASVFVNVTDPSQVSHGTGFTSFGLLKLGGGDQNPQIAAHVISEASSKTTSVLQWAEKGYYTMSNNLVTLENGKQLTVKRQGLYYIYAQVTFCSNREASSQAPFIASLCLKSPGRFERILLRAANTHSSAKPCGQQSIHLGGVFELQPGASVFVNVTDPSQVSHGTGFTSFGLLKLGGGDQNPQIAAHVISEASSKTTSVLQWAEKGYYTMSNNLVTLENGKQLTVKRQGLYYIYAQVTFCSNREASSQAPFIASLCLKSPGRFERILLRAANTHSSAKPCGQQSIHLGGVFELQPGASVFVNVTDPSQVSHGTGFTSFGLLKL chain 2: SLGWDVAELQLNHTGPQQDPRLYWQGGPALGRSFLHGPELDKGQLRIHRDGIYMVHIQVTLAICSSTTASRHHPTTLAVGICSPASRSISLLRLSFHQGCTIASQRLTPLARGDTLCTNLTGTLLPSRNTDETFFGVQWVRPGGSLGWDVAELQLNHTGPQQDPRLYWQGGPALGRSFLHGPELDKGQLRIHRDGIYMVHIQVTLAICSSTTASRHHPTTLAVGICSPASRSISLLRLSFHQGCTIASQRLTPLARGDTLCTNLTGTLLPSRNTDETFFGVQWVRPGGSLGWDVAELQLNHTGPQQDPRLYWQGGPALGRSFLHGPELDKGQLRIHRDGIYMVHIQVTLAICSSTTASRHHPTTLAVGICSPASRSISLLRLSFHQGCTIASQRLTPLARGDTLCTNLTGTLLPSRNTDETFFGVQWVRP
2 |  | 0.5 | 0.3 | 0.2 | scCD40L-scOX40L-Fc (Fc fusion, human) chain 1: GDQNPQIAAHVISEASSKTTSVLQWAEKGYYTMSNNLVTLENGKQLTVKRQGLYYIYAQVTFCSNREASSQAPFIASLCLKSPGRFERILLRAANTHSSAKPCGQQSIHLGGVFELQPGASVFVNVTDPSQVSHGTGFTSFGLLKLGGGDQNPQIAAHVISEASSKTTSVLQWAEKGYYTMSNNLVTLENGKQLTVKRQGLYYIYAQVTFCSNREASSQAPFIASLCLKSPGRFERILLRAANTHSSAKPCGQQSIHLGGVFELQPGASVFVNVTDPSQVSHGTGFTSFGLLKLGGGDQNPQIAAHVISEASSKTTSVLQWAEKGYYTMSNNLVTLENGKQLTVKRQGLYYIYAQVTFCSNREASSQAPFIASLCLKSPGRFERILLRAANTHSSAKPCGQQSIHLGGVFELQPGASVFVNVTDPSQVSHGTGFTSFGLLKL chain 2: QVSHRYPRIQSIKVQFTEYKKEKGFILTSQKEDEIMKVQNNSVIINCDGFYLISLKGYFSQEVNISLHYQKDEEPLFQLKKVRSVNSLMVASLTYKDKVYLNVTTDNTSLDDFHVNGGELILIHQNPGEFCVLGGGGSGGGGSGGGGSQVSHRYPRIQSIKVQFTEYKKEKGFILTSQKEDEIMKVQNNSVIINCDGFYLISLKGYFSQEVNISLHYQKDEEPLFQLKKVRSVNSLMVASLTYKDKVYLNVTTDNTSLDDFHVNGGELILIHQNPGEFCVLGGGGSGGGGSGGGGSQVSHRYPRIQSIKVQFTEYKKEKGFILTSQKEDEIMKVQNNSVIINCDGFYLISLKGYFSQEVNISLHYQKDEEPLFQLKKVRSVNSLMVASLTYKDKVYLNVTTDNTSLDDFHVNGGELILIHQNPGEFCVL
